Consider four molecules from patent publication US20230416347A1.

Assay [1] has as its target rVλ6Wil fibrils. Put plainly: EuLISA on rVλ6Wil fibrils (FIG. 5A).
For assay [2], the target named is rVλ6Wil fibrils. Put plainly: EuLISA on rVλ6Wil fibrils (FIG. 5B).

What is called EC50 is the concentration needed to bring the measured effect to its halfway point.

B1: VH10/VL4 (antibody, V domains shown)
VH: QVQLQESGPGLVKPSETLSLTCTVSGFSLSSYGVSWIRQPPGKGLEWLGVIWGDGSTNYHPNLMSRLSISKDTSKSQVLLKLSSVTAADTAVYYCVTLDYWGQGTSVTVSS
VL: DVVMTQSPLSLPVTLGQPASISCRSSQSLVHRNGNTYLHWFQQRPGQSPRLLIYKVSNRFSGVPDRFSGSGSGTDFTLKISRVEAEDVGVYFCFQTTYVPNTFGGGTKLEIK
On to B1, for which, in the assay with rVλ6Wil fibrils [1], the EC50 is 17 nM.

B2: VH8/VL4 (antibody, V domains shown)
VH: QVQLQESGPGLVKPSETLSLTCTVSGFSLSSYGVSWIRQPPGKGLEWIGVIWGDGSTNYHPNLMSRVTISKDTSKSQFSLKLSSVTAADTAVYYCVTLDYWGQGTSVTVSS
VL: DVVMTQSPLSLPVTLGQPASISCRSSQSLVHRNGNTYLHWFQQRPGQSPRLLIYKVSNRFSGVPDRFSGSGSGTDFTLKISRVEAEDVGVYFCFQTTYVPNTFGGGTKLEIK
In the assay with rVλ6Wil fibrils [1], B2 gave a concentration giving a half-maximal response (EC50) of 16 nM.

B3: VH7/VL4 (antibody, V domains shown)
VH: QVQLQESGPGLVKPSETLSLTCTVSGFSLSSYGVSWIRQPPGKGLEWIGVIWGDGSTNYHPNLMSRVTISKDTSKNQVLLKLSSVTAADTAVYYCVTLDYWGQGTSVTVSS
VL: DVVMTQSPLSLPVTLGQPASISCRSSQSLVHRNGNTYLHWFQQRPGQSPRLLIYKVSNRFSGVPDRFSGSGSGTDFTLKISRVEAEDVGVYFCFQTTYVPNTFGGGTKLEIK
In the assay with rVλ6Wil fibrils [1], B3 displayed a concentration giving a half-maximal response (EC50) of 75 nM.

B4: VH6/VL3 (antibody, V domains shown)
VH: QVQLQESGPGLVKPSETLSLTCTVSGFSLSSYGVSWVRQPPGKGLEWLGVIWGDGSTNYHPNLMSRLSISKDTSKNQFSLKLSSVTAADTATYYCVTLDYWGQGTSVTVSS
VL: DVVMTQSPLSLPVTLGQPASISCRSSQSLVHRNGNTYLHWYLQRPGQSPRLLIYKVSNRFSGVPDRFSGSGSGTDFTLKISRVEAEDVGLYFCFQTTYVPNTFGGGTKLEIK
With B4, the EC50 with rVλ6Wil fibrils [1] and with rVλ6Wil fibrils [2] was 95 nM in each case.
